From patent US9290540B2, “Angiotensin Type 2 (AT2) receptor agonists and uses thereof” (Lanthio Pep B.V., priority 2010, dated 2016)
Blank lines part the entries; values can stand above or below the substance they belong to. Bridges are numbered along the chain shown (N, C = ends). Where no end group is shown, it is not given here. [ ]: non-standard residue; d: D form.

Key:
AT2 receptor = biological target: T1, AT2 receptor (Homo sapiens, UniProt P50052); test: Inhibition of peptide-induced ERK phosphorylation by AT2 receptor antagonist PD123319 in HBE cells; type: cell-based; details: for inhibition of peptide-induced ERK1 phosphorylation by PD123319 / inhibition of peptide-induced ERK2 phosphorylation by PD123319 / inhibition of peptide-induced ERK phosphorylation (ERK1 and ERK2) by PD123319 / inhibition of peptide-induced (total) Erk phosphorylation by PD123319: 20 min preincubation with 10^-6 M PD123319, peptide 10^-6 M
T1 construct: stimulate extracellular-signal-regulated kinase (ERK) phosphorylation in human bronchial epithelial (HBE) cells; endogenous in cells; host or cells: HBE (immortal human bronchial epithelial cell line)
T1 sequence (P50052 1-363): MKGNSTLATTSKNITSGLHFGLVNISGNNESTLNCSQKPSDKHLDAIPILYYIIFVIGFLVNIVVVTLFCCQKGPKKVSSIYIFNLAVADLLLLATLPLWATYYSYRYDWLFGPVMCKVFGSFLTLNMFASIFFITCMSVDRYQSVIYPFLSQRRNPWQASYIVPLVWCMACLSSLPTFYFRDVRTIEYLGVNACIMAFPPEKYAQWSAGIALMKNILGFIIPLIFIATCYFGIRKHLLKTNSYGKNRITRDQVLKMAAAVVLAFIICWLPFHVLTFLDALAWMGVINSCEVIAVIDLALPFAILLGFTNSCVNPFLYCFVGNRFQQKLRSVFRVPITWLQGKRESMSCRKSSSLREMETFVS
Procedure: (§1) Peptides were purchased from JPT: linear DDRVAIHA (SEQ ID No: 4), dKDRVdCIHC (SEQ ID No: 9), KDRVdCIHC (SEQ ID No: 9), DDRVdCIHC (SEQ ID No: 11), IDRVdCIHC (SEQ ID No: 12), NDRVdCIHC (SEQ ID No: 13), SDRVdCIHC (SEQ ID No: 14), in which dK stands for D-lysine and dC stands for D-cysteine. The AT2 receptor antagonist PD123319 was from Axon Medchem. Studies were performed using the immortal human bronchial epithelial cell line HBE (Cozens A L, et al. 1994 CFTR expression and chloride secretion in polarized immortal human bronchial epithelial cells. Am J Respir Cell Mol Biol 10:38-47). All culture media and supplements, multiwell plates and flasks were from PAA.
(§2) Cell culture. Multi-well plates received 1 ml from a coating solution (for 112 ml: F12 medium 100 ml; bovine serum albumin 10 ml (1 mg/ml); collagen I, Bovine 1 ml (3 mg/ml); human fibronectin 1 ml (1 mg/ml)) and were incubated for 6 hours at 37° C. and 5% CO2. Subsequently the coating solution was discarded and the plates were dried for 2 hours in the laminar flow cabinet. In each 12 well plate 8.10^4 HBE cells were seeded per well followed by incubation for 24 hours at 37° C. and 5% CO2. Cell culture medium was prepared by adding 432.2 ml MEM 199 basic medium to 50 ml […] FCS and 5 ml L-Glutamin (200 mM), 10 ml Penicillin/Streptomycin (10.000 units/ml/10 mg/ml) and 2.8 ml Gentamycin (10 mg/ml). At 85-90% confluency medium was replaced by medium without FCS and growth factors followed by again 24 hours incubation at 37° C. and 5% CO2.
(§3) Erk1 and Erk2 phosphorylation. The medium was removed from each well and was washed once with HBS buffer without calcium and magnesium. The capacity of peptide at 10^−6 M was tested after 20 min preincubation with either 10^−6 M of PD123319 or concomitant controls, followed by washing. Challenges and concomitant controls were performed at 1 ml/well during 10 min. All samples were tested in triplicate. After the challenge 150 μl RIPA buffer (RIPA, TBS, 1% Nonidet P-40, 0.5% sodium deoxycholate, 0.1% SDS, 0.004% sodium azide, 1% PMSF (2 mM final concentration), 1% sodium orthovanadate (1 mM final concentration) and 1% protease inhibitor cocktail) was added to each well. The plates were incubated for 15 minutes at 4° C. The lysed cells were scraped from the surface. The lysate was transferred to 1.5 ml eppendorf cups and centrifuged 5 minutes at 12.700×g to pellet the cell debris. The supernatant was transferred into new cups and of a 5 al sample the total protein content was determined via the DC protein assay according to lowry (Bio-Rad), with BSA used as calibration protein. Protein was separated on gel and blotted with p-ERK mouse monoclonal IgG2a and mouse GAPDH anti-rat IgG1 antibodies and as a second antibody goat anti-mouse IgG-AP. The phosphorylated Erk proteins and GAPDH were stained with BCIP/NBT and quantified relative to GAPDH and total Erk using TotalLab software. Alternatively, total Erk phosphorylation was measured after permeabilization of the non-detached cells.
In this example it is investigated whether or not cAng-(1-7) analogs with an N-terminal extension of two amino acids stimulate the AT2 receptor.
Thioether bridged peptide synthesis and cell culture and measurement of Erk1- and total Erk phosphorylation were essentially as in example 2.

[1] = system: extracellular-signal-regulated kinase (ERK) phosphorylation in human bronchial epithelial (HBE) cells; test: Peptide-induced Erk1/Erk2/total Erk phosphorylation in HBE cells; type: cell-based; details: peptide 10^-6 M, 10 min challenge
Procedure: as §1, §2
as §3, with “The lysate was transferred to 1.5 ml eppendorf cups and centrifuged 5 minutes at 12.700×g to pellet the cell debris.” left out, “Protein was separated on gel and blotted with p-ERK mouse monoclonal IgG2a and mouse GAPDH anti-rat IgG1 antibodies and as a second antibody goat anti-mouse IgG-AP.” left out, “cells. […]” for “cells.”

[2] = system: precontracted aorta rings; test: Vasodilation on phenylephrine-precontracted aorta rings (organ bath); parameters: species or system Sprague Dawley rat; details: sub-nM concentration; peptides added cumulatively 0.1 nM to 1 μM; rings precontracted with 30 nM phenylephrine
Procedure: Peptides: KDRVdCIHC (SEQ ID No: 9), and YDRVdCIHC (SEQ ID No: 10) wherein dC stands for D-cysteine were purchased from JPT. Specified pathogen-free male Sprague Dawley rats (SD) (Harlan, Zeist, The Netherlands), weighing […] were used. Prior to the experiment, the animals were housed together with free access of tap water and solid chow (Harlan, Zeist, The Netherlands) in a temperature and humidity controlled room and a 12/12 h light/dark cycle. All protocols described were approved by the University of Groningen Committee for Animal Experimentation.
Thioether-bridged peptides were obtained from the disulfide bridged peptide via base-asisted sulfur extrusion as previously (Galande A K, et al 2003. Biopolymers 71:534-551).
(§4) Vasodilation on precontracted aorta-rings. Arterial rings for organ bath experiments were prepared as described previously (Kluskens L D, et al. 2009. J Pharmacol Exp Ther 328:849-54). Before testing the vasodilating effects of the peptides the rings were precontracted to 50% of their maximum contraction level with 30 nM phenylephrine (PE). The 5,8 thioether bridged peptides KDRV[AIHA]C (SEQ ID No: 3) or YDRV[AIHA]c (SEQ ID No: 5) were added cumulatively in a range of 0.1 nM to 1 μM. Vasodilation data are represented as percentage of relaxation of 30 nM PE contraction.

Mas receptor = biological target: T2, Mas receptor (Rattus norvegicus, UniProt P12526); test: Peptide-induced vasodilation of precontracted aorta rings in presence of Mas receptor antagonist D-Pro7-Ang-(1-7); parameters: species or system Sprague Dawley rat; details: D-Pro7-Ang-(1-7) 0.1 μM, 10 min before 30 nM PE
T2 construct: vasodilation in precontracted aorta rings from Sprague Dawley rats; from tissue; host or cells: aorta rings of male Sprague Dawley rats
T2 sequence (P12526 1-324): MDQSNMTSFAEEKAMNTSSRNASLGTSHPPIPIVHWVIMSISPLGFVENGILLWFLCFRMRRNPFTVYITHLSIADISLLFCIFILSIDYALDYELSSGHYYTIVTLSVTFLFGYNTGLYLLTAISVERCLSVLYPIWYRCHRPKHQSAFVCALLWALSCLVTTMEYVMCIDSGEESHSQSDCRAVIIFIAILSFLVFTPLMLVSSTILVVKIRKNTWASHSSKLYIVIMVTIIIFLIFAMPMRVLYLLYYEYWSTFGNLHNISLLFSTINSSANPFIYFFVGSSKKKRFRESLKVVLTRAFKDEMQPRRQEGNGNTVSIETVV
Procedure: as §4
D-Pro7-ang-(1-7), ang-(1-7) with a D-isomer of proline at position 7, which is a Mas-receptor antagonists, was from JPT and purified by HPLC prior to use. This antagonist was used as in Kluskens et al 2009: 10 min before addition of 30 nM PE at a concentration of 0.1 μM. Other materials and methods were as in example 1.

Substance: DDRVAIHA (cyclic AT2 receptor antagonist) [reference compound]
inhibition of peptide-induced (total) Erk phosphorylation by PD123319 (AT2 receptor): could not be inhibited
peptide-induced (total) Erk phosphorylation [1]: induced Erk phosphorylation

Substance: Ile-Asp-Arg-Val-Abu/Ala-Ile-His-Abu/Ala (IDRVAIHA; not fully specified; thioether bridge (lanthionine); cyclic AT2 receptor antagonist) [IcAng-(1-7)]
inhibition of peptide-induced ERK1 phosphorylation by PD123319 (AT2 receptor): inhibited
inhibition of peptide-induced ERK phosphorylation (ERK1 and ERK2) by PD123319 (AT2 receptor): complete
peptide-induced Erk1 phosphorylation [1]: induced Erk1 phosphorylation

Substance: ScAng-(1-7): thioether bridged cAng-(1-7) with Ser at position -1, made from SDRVdCIHC (SEQ ID No: 14) (SDRV[dC]IHC; bridge 5-8; not fully specified (bridges); also: thioether formed from the disulfide precursor by sulfur extrusion)
interaction with / stimulation of the AT2 receptor (conclusion from PD123319 sensitivity of ERK phosphorylation) (AT2 receptor): did not or hardly interact with the AT2 receptor
inhibition of peptide-induced ERK1 phosphorylation by PD123319 (AT2 receptor): less
inhibition of peptide-induced ERK2 phosphorylation by PD123319 (AT2 receptor): did not affect
inhibition of peptide-induced ERK2 phosphorylation by PD123319 (AT2 receptor; listed as Ser): less or absent

Further lines, with some results ahead:

inhibition of peptide-induced ERK1 phosphorylation by PD123319 (AT2 receptor): less
inhibition of peptide-induced ERK2 phosphorylation by PD123319 (AT2 receptor): less or absent
Substance: Asn-Asp-Arg-Val-Abu/Ala-Ile-His-Abu/Ala (NDRVAIHA; not fully specified; thioether bridge (lanthionine); cyclic AT2 receptor antagonist) [N-cAng(1-7)]
interaction with / stimulation of the AT2 receptor (conclusion from PD123319 sensitivity of ERK phosphorylation) (AT2 receptor): did not or hardly interact with the AT2 receptor

inhibition of peptide-induced ERK1 phosphorylation by PD123319 (AT2 receptor): inhibited
inhibition of peptide-induced ERK phosphorylation (ERK1 and ERK2) by PD123319 (AT2 receptor): complete
Substance: Asp-Asp-Arg-Val-Abu/Ala-Ile-His-Abu/Ala (DDRVAIHA; not fully specified; thioether bridge (lanthionine); cyclic AT2 receptor antagonist) [DcAng-(1-7)]
peptide-induced Erk1 phosphorylation [1]: induced Erk1 phosphorylation

inhibition of peptide-induced (total) Erk phosphorylation by PD123319 (AT2 receptor): no inhibition at all
Substance: IDDRVAIHA (not fully specified) [reference compound]
peptide-induced (total) Erk phosphorylation [1]: induced Erk phosphorylation

inhibition of peptide-induced vasodilation by Mas receptor antagonist D-Pro7 (Mas receptor): does not inhibit
inhibition of peptide-induced ERK phosphorylation (ERK1 and ERK2) by PD123319 (AT2 receptor): complete
Substance: Lys-Asp-Arg-Val-Abu/Ala-Ile-His-Abu/Ala (KDRVAIHA; not fully specified; thioether bridge (lanthionine); cyclic AT2 receptor antagonist) [KcAng-(1-7), cAng-(1-7) N-terminally extended with Lys]
vasodilation of precontracted aorta rings (percentage of relaxation of 30 nM PE contraction) [2]: significant vasodilating capacity

inhibition of peptide-induced vasodilation by Mas receptor antagonist D-Pro7 (Mas receptor): does not inhibit
Substance: Tyr-Asp-Arg-Val-Abu/Ala-Ile-His-Abu/Ala (YDRVAIHA; not fully specified; thioether bridge (lanthionine); cyclic AT2 receptor antagonist) [YcAng-(1-7), cAng-(1-7) N-terminally extended with Tyr]
vasodilation of precontracted aorta rings (percentage of relaxation of 30 nM PE contraction) [2]: significant vasodilating capacity
